Literature values in US9453050B2, “Compositions for treating glioma” (GLIA SP Z.O.O., priority 2011, dated 2016).

Columns and labels:
[1] = target: T1, high affinity receptor (GM-CSFRα.βc complex) (Homo sapiens, UniProt P15509+P32927); settings: VonFeldt et al.; cited from earlier work
T1 sequence (P15509 23-400): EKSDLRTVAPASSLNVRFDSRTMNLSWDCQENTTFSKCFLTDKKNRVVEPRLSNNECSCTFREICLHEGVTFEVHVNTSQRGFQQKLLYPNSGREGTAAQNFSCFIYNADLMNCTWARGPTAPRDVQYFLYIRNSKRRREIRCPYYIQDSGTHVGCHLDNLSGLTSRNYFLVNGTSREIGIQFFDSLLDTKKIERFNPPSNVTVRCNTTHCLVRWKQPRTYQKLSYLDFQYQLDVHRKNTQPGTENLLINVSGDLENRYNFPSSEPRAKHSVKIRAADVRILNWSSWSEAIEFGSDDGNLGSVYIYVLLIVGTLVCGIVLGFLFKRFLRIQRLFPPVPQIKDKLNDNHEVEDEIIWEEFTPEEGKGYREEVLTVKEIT
T1 sequence (P32927 17-897): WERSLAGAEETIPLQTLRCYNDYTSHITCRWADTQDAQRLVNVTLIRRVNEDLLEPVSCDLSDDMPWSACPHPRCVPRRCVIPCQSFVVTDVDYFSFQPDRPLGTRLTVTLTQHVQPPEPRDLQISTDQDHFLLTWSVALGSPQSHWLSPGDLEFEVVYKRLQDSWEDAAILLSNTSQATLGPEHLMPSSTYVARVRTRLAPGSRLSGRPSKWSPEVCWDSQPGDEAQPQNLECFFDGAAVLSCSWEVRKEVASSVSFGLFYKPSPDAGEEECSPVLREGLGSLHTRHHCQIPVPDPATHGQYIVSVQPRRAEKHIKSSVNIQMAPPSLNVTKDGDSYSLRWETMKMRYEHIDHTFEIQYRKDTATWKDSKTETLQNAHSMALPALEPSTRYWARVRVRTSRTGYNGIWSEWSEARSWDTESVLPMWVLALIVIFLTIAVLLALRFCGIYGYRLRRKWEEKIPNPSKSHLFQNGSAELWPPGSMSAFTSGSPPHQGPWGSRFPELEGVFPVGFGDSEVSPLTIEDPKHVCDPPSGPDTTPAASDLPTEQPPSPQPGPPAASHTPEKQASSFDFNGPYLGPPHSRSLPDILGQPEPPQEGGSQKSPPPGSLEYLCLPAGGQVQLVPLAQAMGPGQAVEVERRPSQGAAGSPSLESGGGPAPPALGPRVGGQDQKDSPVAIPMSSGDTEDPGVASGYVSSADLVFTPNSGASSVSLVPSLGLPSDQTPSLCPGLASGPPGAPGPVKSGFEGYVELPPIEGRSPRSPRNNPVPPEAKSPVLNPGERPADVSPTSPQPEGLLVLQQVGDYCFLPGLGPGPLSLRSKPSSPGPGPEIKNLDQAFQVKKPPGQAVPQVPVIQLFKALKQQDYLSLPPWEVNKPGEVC

[2] = target: T2, low affinity receptor (GM-CSFRα alone) (Homo sapiens, UniProt P15509); settings: VonFeldt et al.; cited from earlier work
T2 sequence (P15509 23-400): T1 sequence (P15509 23-400)

Substance | high affinity receptor binding [1] | low affinity receptor binding [2]
amino acids 17-31 (the A helix) of GM-CSF: linear peptide analog of GM-CSF, VonFeldt et al. (NAIQEARRLLNLSRD; UniProt P04141 34-48, looked up, fragment) | inhibits | –
peptide consisting of amino acids 54-78 (B and C helices): linear peptide analog of GM-CSF, VonFeldt et al. (CLQTRLELYKQGLRGSLTKLKGPLT; UniProt P04141 71-95, looked up, fragment) | – | inhibits
